Experimental data as given in US20140031526A1 (YISSUM RESEARCH DEVELOPMENT COMPANY OF THE HEBREW …, published 2014).

Biological target: the molecule itself
Experiment: FPLC gel filtration before and after sonication (self-association)

B1: 6H-15mer-CBD fusion protein (dragline spider silk 15mer fused to Clostridium cellulovorans CBDclos, with His tags and S-tag) (other)
chain: MHHHHHHSSGLVPRGSGMKETAAAKFERQHMDSPDLGTDDDDKAMASGRGGLGGQGAGAAAAAGGAGQGGYGGLGSQGTSGRGGLGGQGAGAAAAAGGAGQGGYGGLGSQGTSGRGGLGGQGAGAAAAAGGAGQGGYGGLGSQGTSGRGGLGGQGAGAAAAAGGAGQGGYGGLGSQGTSGRGGLGGQGAGAAAAAGGAGQGGYGGLGSQGTSGRGGLGGQGAGAAAAAGGAGQGGYGGLGSQGTSGRGGLGGQGAGAAAAAGGAGQGGYGGLGSQGTSGRGGLGGQGAGAAAAAGGAGQGGYGGLGSQGTSGRGGLGGQGAGAAAAAGGAGQGGYGGLGSQGTSGRGGLGGQGAGAAAAAGGAGQGGYGGLGSQGTSGRGGLGGQGAGAAAAAGGAGQGGYGGLGSQGTSGRGGLGGQGAGAAAAAGGAGQGGYGGLGSQGTSGRGGLGGQGAGAAAAAGGAGQGGYGGLGSQGTSGRGGLGGQGAGAAAAAGGAGQGGYGGLGSQGTSGRGGLGGQGAGAAAAAGGAGQGGYGGLGSQGTSMAATSSMSVEFYNSNKAAQTNSITPIIKITNTADSDLNLNDVKVRYYYTSDGTQGQTFWGDHAGALLGNSYVDNTGKVTANFVKETASPTSTYDTYVEFGFASGAATLKKGQFITIQGRITKSDWSNYAQTNDYSFDASSSTPVVNPKVTGYIGGAKVLGTAPGPDVPSSIINPTSATFDLEHHHHHH
notes: Expressed in E. coli BL21(DE3) from pET30a and purified on Ni-NTA; also called Silk-CBD; 6H-Silk-CBD
- binding result: binds
